Measured values taken from US20150087577A1 (POLYPHOR, published 2015).
Bridges are numbered along the chain shown (N, C = ends). [ ]: non-standard residue; d: D form. 2Nal = N[C@@H](Cc1ccc2ccccc2c1)C(=O)O; Cit = NC(=O)NCCC[C@H](N)C(=O)O

B1: Example 56 (peptide)
peptide: cyclo(YR[Cit]CRG[dP]TR[2Nal]CYQK[dP]P)
modifications: disulfide 4-11
SMILES: C[C@@H](O)[C@@H]1NC(=O)[C@H]2CCCN2C(=O)CNC(=O)[C@H](CCCNC(=N)N)NC(=O)[C@@H]2CSSC[C@H](NC(=O)[C@H](Cc3ccc4ccccc4c3)NC(=O)[C@H](CCCNC(=N)N)NC1=O)C(=O)N[C@@H](Cc1ccc(O)cc1)C(=O)N[C@@H](CCC(N)=O)C(=O)N[C@@H](CCCCN)C(=O)N1CCC[C@@H]1C(=O)N1CCC[C@H]1C(=O)N[C@@H](Cc1ccc(O)cc1)C(=O)N[C@@H](CCCNC(=N)N)C(=O)N[C@@H](CCCNC(N)=O)C(=O)N2
B2: Example 58 (peptide)
peptide: cyclo(YR[Cit]CRG[dP]RR[2Nal]CYHK[dP]P)
modifications: disulfide 4-11
SMILES: N=C(N)NCCC[C@@H]1NC(=O)[C@@H]2CSSC[C@H](NC(=O)[C@H](Cc3ccc4ccccc4c3)NC(=O)[C@H](CCCNC(=N)N)NC(=O)[C@H](CCCNC(=N)N)NC(=O)[C@H]3CCCN3C(=O)CNC1=O)C(=O)N[C@@H](Cc1ccc(O)cc1)C(=O)N[C@@H](Cc1c[nH]cn1)C(=O)N[C@@H](CCCCN)C(=O)N1CCC[C@@H]1C(=O)N1CCC[C@H]1C(=O)N[C@@H](Cc1ccc(O)cc1)C(=O)N[C@@H](CCCNC(=N)N)C(=O)N[C@@H](CCCNC(N)=O)C(=O)N2
B3: Example 63 (peptide)
peptide: cyclo(RR[Cit]CRG[dP]RR[2Nal]CYQK[dP]P)
modifications: disulfide 4-11
SMILES: N=C(N)NCCC[C@@H]1NC(=O)[C@@H]2CSSC[C@H](NC(=O)[C@H](Cc3ccc4ccccc4c3)NC(=O)[C@H](CCCNC(=N)N)NC(=O)[C@H](CCCNC(=N)N)NC(=O)[C@H]3CCCN3C(=O)CNC1=O)C(=O)N[C@@H](Cc1ccc(O)cc1)C(=O)N[C@@H](CCC(N)=O)C(=O)N[C@@H](CCCCN)C(=O)N1CCC[C@@H]1C(=O)N1CCC[C@H]1C(=O)N[C@@H](CCCNC(=N)N)C(=O)N[C@@H](CCCNC(=N)N)C(=O)N[C@@H](CCCNC(N)=O)C(=O)N2
B4: Example 62 (peptide)
peptide: cyclo(QR[Cit]CRG[dP]RR[2Nal]CYQK[dP]P)
modifications: disulfide 4-11
SMILES: N=C(N)NCCC[C@@H]1NC(=O)[C@@H]2CSSC[C@H](NC(=O)[C@H](Cc3ccc4ccccc4c3)NC(=O)[C@H](CCCNC(=N)N)NC(=O)[C@H](CCCNC(=N)N)NC(=O)[C@H]3CCCN3C(=O)CNC1=O)C(=O)N[C@@H](Cc1ccc(O)cc1)C(=O)N[C@@H](CCC(N)=O)C(=O)N[C@@H](CCCCN)C(=O)N1CCC[C@@H]1C(=O)N1CCC[C@H]1C(=O)N[C@@H](CCC(N)=O)C(=O)N[C@@H](CCCNC(=N)N)C(=O)N[C@@H](CCCNC(N)=O)C(=O)N2
B5: Example 64 (peptide)
peptide: cyclo(HR[Cit]CRG[dP]RR[2Nal]CYQK[dP]P)
modifications: disulfide 4-11
SMILES: N=C(N)NCCC[C@@H]1NC(=O)[C@@H]2CSSC[C@H](NC(=O)[C@H](Cc3ccc4ccccc4c3)NC(=O)[C@H](CCCNC(=N)N)NC(=O)[C@H](CCCNC(=N)N)NC(=O)[C@H]3CCCN3C(=O)CNC1=O)C(=O)N[C@@H](Cc1ccc(O)cc1)C(=O)N[C@@H](CCC(N)=O)C(=O)N[C@@H](CCCCN)C(=O)N1CCC[C@@H]1C(=O)N1CCC[C@H]1C(=O)N[C@@H](Cc1c[nH]cn1)C(=O)N[C@@H](CCCNC(=N)N)C(=O)N[C@@H](CCCNC(N)=O)C(=O)N2
B6: Example 61 (peptide)
peptide: cyclo(YR[Cit]CRG[dP]RR[2Nal]CYQE[dP]P)
modifications: disulfide 4-11
SMILES: N=C(N)NCCC[C@@H]1NC(=O)[C@@H]2CSSC[C@H](NC(=O)[C@H](Cc3ccc4ccccc4c3)NC(=O)[C@H](CCCNC(=N)N)NC(=O)[C@H](CCCNC(=N)N)NC(=O)[C@H]3CCCN3C(=O)CNC1=O)C(=O)N[C@@H](Cc1ccc(O)cc1)C(=O)N[C@@H](CCC(N)=O)C(=O)N[C@@H](CCC(=O)O)C(=O)N1CCC[C@@H]1C(=O)N1CCC[C@H]1C(=O)N[C@@H](Cc1ccc(O)cc1)C(=O)N[C@@H](CCCNC(=N)N)C(=O)N[C@@H](CCCNC(N)=O)C(=O)N2
B7: Example 60 (peptide)
peptide: cyclo(YR[Cit]CRG[dP]RR[2Nal]CYQQ[dP]P)
modifications: disulfide 4-11
SMILES: N=C(N)NCCC[C@@H]1NC(=O)[C@@H]2CSSC[C@H](NC(=O)[C@H](Cc3ccc4ccccc4c3)NC(=O)[C@H](CCCNC(=N)N)NC(=O)[C@H](CCCNC(=N)N)NC(=O)[C@H]3CCCN3C(=O)CNC1=O)C(=O)N[C@@H](Cc1ccc(O)cc1)C(=O)N[C@@H](CCC(N)=O)C(=O)N[C@@H](CCC(N)=O)C(=O)N1CCC[C@@H]1C(=O)N1CCC[C@H]1C(=O)N[C@@H](Cc1ccc(O)cc1)C(=O)N[C@@H](CCCNC(=N)N)C(=O)N[C@@H](CCCNC(N)=O)C(=O)N2
B8: Example 59 (peptide)
peptide: cyclo(YR[Cit]CRG[dP]RR[2Nal]CYYK[dP]P)
modifications: disulfide 4-11
SMILES: N=C(N)NCCC[C@@H]1NC(=O)[C@@H]2CSSC[C@H](NC(=O)[C@H](Cc3ccc4ccccc4c3)NC(=O)[C@H](CCCNC(=N)N)NC(=O)[C@H](CCCNC(=N)N)NC(=O)[C@H]3CCCN3C(=O)CNC1=O)C(=O)N[C@@H](Cc1ccc(O)cc1)C(=O)N[C@@H](Cc1ccc(O)cc1)C(=O)N[C@@H](CCCCN)C(=O)N1CCC[C@@H]1C(=O)N1CCC[C@H]1C(=O)N[C@@H](Cc1ccc(O)cc1)C(=O)N[C@@H](CCCNC(=N)N)C(=O)N[C@@H](CCCNC(N)=O)C(=O)N2
B9: Example 3 (peptide)
peptide: cyclo(YR[Cit]FRRR[2Nal]FY[Cit]K[dP]P)
SMILES: N=C(N)NCCC[C@@H]1NC(=O)[C@H](CCCNC(=N)N)NC(=O)[C@H](Cc2ccccc2)NC(=O)[C@H](CCCNC(N)=O)NC(=O)[C@H](CCCNC(=N)N)NC(=O)[C@H](Cc2ccc(O)cc2)NC(=O)[C@@H]2CCCN2C(=O)[C@H]2CCCN2C(=O)[C@H](CCCCN)NC(=O)[C@H](CCCNC(N)=O)NC(=O)[C@H](Cc2ccc(O)cc2)NC(=O)[C@H](Cc2ccccc2)NC(=O)[C@H](Cc2ccc3ccccc3c2)NC(=O)[C@H](CCCNC(=N)N)NC1=O
B10: Example 57 (peptide)
peptide: cyclo(YR[Cit]CRG[dP]RR[2Nal]CYRK[dP]P)
modifications: disulfide 4-11
SMILES: N=C(N)NCCC[C@@H]1NC(=O)[C@@H]2CSSC[C@H](NC(=O)[C@H](Cc3ccc4ccccc4c3)NC(=O)[C@H](CCCNC(=N)N)NC(=O)[C@H](CCCNC(=N)N)NC(=O)[C@H]3CCCN3C(=O)CNC1=O)C(=O)N[C@@H](Cc1ccc(O)cc1)C(=O)N[C@@H](CCCNC(=N)N)C(=O)N[C@@H](CCCCN)C(=O)N1CCC[C@@H]1C(=O)N1CCC[C@H]1C(=O)N[C@@H](Cc1ccc(O)cc1)C(=O)N[C@@H](CCCNC(=N)N)C(=O)N[C@@H](CCCNC(N)=O)C(=O)N2

The binders below were run against human CXCR4 (human, UniProt P61073 1-352) (assay: cell-based or functional assay).
human CXCR4, sequence (P61073 whole entry): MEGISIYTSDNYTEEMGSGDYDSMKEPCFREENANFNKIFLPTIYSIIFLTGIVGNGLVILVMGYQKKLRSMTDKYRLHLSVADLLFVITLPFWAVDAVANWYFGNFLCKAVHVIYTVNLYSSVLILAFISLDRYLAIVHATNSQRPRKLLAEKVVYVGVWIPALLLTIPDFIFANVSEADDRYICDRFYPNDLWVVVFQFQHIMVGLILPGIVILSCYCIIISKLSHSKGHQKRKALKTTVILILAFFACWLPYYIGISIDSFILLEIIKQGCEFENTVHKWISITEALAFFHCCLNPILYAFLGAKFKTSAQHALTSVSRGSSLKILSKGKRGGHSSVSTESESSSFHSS

IC50 (nM) Ca2+ assay (method 2) [nM] | IC50 (nM) Ca2+ assay (method 1) [nM] | Binder
0.74 | – | B1
10.5 | – | B2
2 | – | B3
1.8 | – | B4
3.3 | – | B5
4.1 | – | B6
0.18 | – | B7
7.8 | – | B8
– | 1000 | B9
4.2 | – | B10
